Results published in patent publication US20200362029A1 (IMMUNOGEN, published 2020).
Each block holds one binder with its values, some of them ahead of it.

Columns and labels:
recombinant FRα antigen = recombinant FRα antigen (human, UniProt P15328 25-234); assay: BLI (Octet96), IgG on anti-human- or anti-murine-Fc sensors, recombinant FRα in solution, 1:1 fit
Method: Table 10 summarizes the kinetic parameters of binding of Bin1 and Bin 2 antibodies with recombinant FRα antigen. KD values were obtained via biolayer interferometry performed on Octet96 system (Fortebio) essentially according to manufacturer's recommended procedure. Briefly, anti-human- or anti-murine −Fc sensors were presoaked in 1× Kinetic Buffer (Fortebio) for 10 min and incubated with 5 μg/mL of either Bin 1 or Bin 2 IgG for 5 min. The sensors were then sequentially moved to 1× Kinetic Buffer for 5 min to determine baseline, serial dilutions of antigen for association (10 min), and 1× Kinetic Buffer for dissociation (10 min). The raw data was collected, processed and fitted to a simple 1:1 binding model using Fortebio analysis software to determine the kinetic parameters Kon and Koff.

[1] = molecular target: T1, human folate receptor alpha (FRα) on FRα-positive cells (KB, T47D, JHOS-4) (human, UniProt P15328 25-234); assay: competition FACS on FRα-positive T47D cells; Morrison antibody fixed at 0.8 nM, detected with anti-human FITC secondary; murine parental antibodies titrated (log axis -11 to -7, unit not given; text: 0.2 to 50 nM)
T1 construct: Endogenous FRα on human tumour cell lines; also called FOLR1; folate receptor 1
Method: These eight constructs were further polished using ceramic hydroxyapatite chromatography to greater than 95% purity and subjected to further characterization. To account for the effects of overall molecule conformation or potential structural changes of the scFv arms on the binding of the biparatopic arms, the binding efficiency of each arm of the eight Morrison's constructs was assayed by a competition FACS assay. Briefly, FRα-positive T47D cells were incubated with 0.8 nM of a Morrison's antibody mixed with a corresponding murine parental antibody at a range of concentrations, generally from 50 nM to 0.2 nM. After incubation on ice for 2 hours, cells were washed from unbound antibodies, and bound Morrison's antibody was detected with secondary anti-human FITC-labeled antibody. Reduced binding of the Morrison's antibody in the presence of increasing concentration of the parental antibody indicated an effect on binding of the second set of arms.

recombinant FRα antigen, sequence (P15328 25-234 limits assumed): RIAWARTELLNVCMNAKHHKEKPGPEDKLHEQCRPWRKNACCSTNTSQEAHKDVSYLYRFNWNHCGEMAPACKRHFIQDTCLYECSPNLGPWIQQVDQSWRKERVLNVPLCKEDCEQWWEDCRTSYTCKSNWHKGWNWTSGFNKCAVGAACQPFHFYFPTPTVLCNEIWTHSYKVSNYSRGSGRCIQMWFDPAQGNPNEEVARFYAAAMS
T1 sequence (P15328 25-234 limits assumed, stated change not applied): as the sequence (P15328 25-234 limits assumed) above

Kd (recombinant FRα antigen): 1000 pM
koff (recombinant FRα antigen): 0.0004 s⁻¹
kon (recombinant FRα antigen): 300000 M⁻¹ s⁻¹
B1: FR57 antibody (antibody, V domains shown)
VH: EVQLVESGGGLVQPGGSRRLSCAASGFTFSSFGMHWVRQAPGKGLEWVAYISSGSSTISYADSVKGRFTISRDNSKKTLLLQMTSLRAEDTAMYYCAREAYGSSMEYWGQGTLVTVSS
VL: EIVLTQSPATLSVTPGDRVSLSCRASQNINNNLHWYQQKPGQSPRLLIKYVSQSVSGIPDRFSGSGSGTDFTLSISSVEPEDFGMYFCQQSNSWPHYTFGQGTKLEIK
notes: Tested as an IgG; Only the variable domains are tied to the stand-alone antibody; also called huFR57; FR1-57

binding result [1]: binds
B2: Mov19-G1-FR57scFv1 (Molecule-1: mov19-IgG1-FR57scFv1) (bispecific antibody)
heavy: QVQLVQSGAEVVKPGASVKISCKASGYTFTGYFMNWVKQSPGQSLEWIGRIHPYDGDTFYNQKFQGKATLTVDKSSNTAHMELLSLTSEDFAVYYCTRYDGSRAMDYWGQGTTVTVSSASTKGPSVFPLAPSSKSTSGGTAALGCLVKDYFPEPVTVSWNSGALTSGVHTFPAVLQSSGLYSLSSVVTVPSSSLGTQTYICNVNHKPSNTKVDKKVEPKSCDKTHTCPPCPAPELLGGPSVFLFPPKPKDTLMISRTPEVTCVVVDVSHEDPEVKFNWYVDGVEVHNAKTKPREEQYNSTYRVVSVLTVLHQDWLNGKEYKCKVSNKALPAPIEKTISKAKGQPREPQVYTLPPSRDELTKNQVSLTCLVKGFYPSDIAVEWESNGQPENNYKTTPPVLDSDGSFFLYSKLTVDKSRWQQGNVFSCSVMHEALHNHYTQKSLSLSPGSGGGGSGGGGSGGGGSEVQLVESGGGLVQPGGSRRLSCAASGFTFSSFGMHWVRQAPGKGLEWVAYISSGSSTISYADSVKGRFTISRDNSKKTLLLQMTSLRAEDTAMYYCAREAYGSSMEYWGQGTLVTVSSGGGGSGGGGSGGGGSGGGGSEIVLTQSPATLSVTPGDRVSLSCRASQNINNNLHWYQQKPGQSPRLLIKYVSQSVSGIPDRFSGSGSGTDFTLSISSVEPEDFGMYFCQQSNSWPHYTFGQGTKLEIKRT
light: DIVLTQSPLSLAVSLGQPAIISCKASQSVSFAGTSLMHWYHQKPGQQPRLLIYRASNLEAGVPDRFSGSGSKTDFTLTISPVEAEDAATYYCQQSREYPYTFGGGTKLEIKRTVAAPSVFIFPPSDEQLKSGTASVVCLLNNFYPREAKVQWKVDNALQSGNSQESVTEQDSKDSTYSLSSTLTLSKADYEKHKVYACEVTHQGLSSPVTKSFNRGEC
notes: Tetravalent Morrison format with the FR57 scFv on the C-terminus of the Mov19 IgG1 heavy chain; also called Mov19:FR57scFv; M9346A-FR57scFv

Kd (recombinant FRα antigen): 600 pM
koff (recombinant FRα antigen): 0.0003 s⁻¹
kon (recombinant FRα antigen): 500000 M⁻¹ s⁻¹
B3: huMov19 (M9346A) antibody (antibody, V domains shown)
VH: QVQLVQSGAEVVKPGASVKISCKASGYTFTGYFMNWVKQSPGQSLEWIGRIHPYDGDTFYNQKFQGKATLTVDKSSNTAHMELLSLTSEDFAVYYCTRYDGSRAMDYWGQGTTVTVSS
VL: DIVLTQSPLSLAVSLGQPAIISCKASQSVSFAGTSLMHWYHQKPGQQPRLLIYRASNLEAGVPDRFSGSGSKTDFTLTISPVEAEDAATYYCQQSREYPYTFGGGTKLEIKR
notes: Humanized IgG1/kappa; also called huM9346A; huM9346A-biotin

binding result [1]: binds
B4: FR57-G1-Mov19scFv1 (Molecule 2: FR57-IgG1-mov19scFv1) (bispecific antibody)
heavy: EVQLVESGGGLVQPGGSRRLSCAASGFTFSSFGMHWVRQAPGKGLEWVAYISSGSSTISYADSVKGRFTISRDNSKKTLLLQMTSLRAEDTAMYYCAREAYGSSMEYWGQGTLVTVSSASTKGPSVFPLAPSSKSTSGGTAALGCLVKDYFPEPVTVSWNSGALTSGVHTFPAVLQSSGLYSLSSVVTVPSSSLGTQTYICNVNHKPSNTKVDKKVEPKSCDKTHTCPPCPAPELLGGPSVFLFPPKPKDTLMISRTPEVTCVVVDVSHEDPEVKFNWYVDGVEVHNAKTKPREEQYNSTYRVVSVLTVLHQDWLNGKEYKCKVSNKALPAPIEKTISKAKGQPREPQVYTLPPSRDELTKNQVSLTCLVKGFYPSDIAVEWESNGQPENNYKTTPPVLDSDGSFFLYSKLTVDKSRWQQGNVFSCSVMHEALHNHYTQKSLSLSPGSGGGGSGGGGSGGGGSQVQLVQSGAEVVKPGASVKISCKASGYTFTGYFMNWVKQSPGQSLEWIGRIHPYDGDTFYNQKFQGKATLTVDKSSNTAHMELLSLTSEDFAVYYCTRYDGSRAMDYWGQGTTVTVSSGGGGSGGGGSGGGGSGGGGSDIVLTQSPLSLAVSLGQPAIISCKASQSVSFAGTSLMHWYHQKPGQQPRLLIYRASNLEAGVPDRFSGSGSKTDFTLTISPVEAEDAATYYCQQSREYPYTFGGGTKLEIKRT
light: EIVLTQSPATLSVTPGDRVSLSCRASQNINNNLHWYQQKPGQSPRLLIKYVSQSVSGIPDRFSGSGSGTDFTLSISSVEPEDFGMYFCQQSNSWPHYTFGQGTKLEIKRTVAAPSVFIFPPSDEQLKSGTASVVCLLNNFYPREAKVQWKVDNALQSGNSQESVTEQDSKDSTYSLSSTLTLSKADYEKHKVYACEVTHQGLSSPVTKSFNRGEC
notes: Tetravalent Morrison format with the Mov19 scFv on the C-terminus of the FR57 IgG1 heavy chain; also called FR57:Mov19scFv; FR57-M9346AscFv
